Measurements from patent US20110028695A1 (published 2011).

Columns and labels:
[1] = target: T1, HER2 on SKBR3 cells (human, UniProt P04626 23-1255); experiment: FMAT on SKBR3 cells; competitor labeled Herceptin
T1 construct: whole, on cells; also called ErbB2; HER2 p185 tyrosine kinase

[2] = target: T1, HER2 on SKBR3 cells; experiment: cell-based or functional assay
[3] = target: T1, HER2 on SKBR3 cells; experiment: FMAT on SKBR3 cells, periplasmic extract; competitor Alexa647-Herceptin
[4] = target: T2, recombinant human ErbB2/Fc chimera (human, UniProt P04626 23-652); experiment: SPR Biacore 3000, periplasmic extract over immobilised rhErbB2-Fc
T2 construct: bought from R&D Systems; also called rhErbB2-Fc; rhErb2-Fc; Fc part of the bought chimera not given

[5] = target: T1, HER2 on SKBR3 cells; experiment: FMAT on SKBR3 cells, periplasmic extract; competitor biotinylated OT-Fab

binding result [1]	Binder	further results
binds	2A4-9GS-2A4 (VHH, bivalent Nanobody, two VHH joined by a 9GS linker) EVQLVESGGGLVQPGGSLRLSCAASGFIFDDYAMSWVRQAPGKGLEWVSAINWSGSHRNYADSVKGRFTISRDNAKKTVYLQMNSLQSEDTAVYYCGTGWQSTTKNQGYWGQGTQVTVSSGGGGSGGGSEVQLVESGGGLVQPGGSLRLSCAASGFIFDDYAMSWVRQAPGKGLEWVSAINWSGSHRNYADSVKGRFTISRDNAKKTVYLQMNSLQSEDTAVYYCGTGWQSTTKNQGYWGQGTQVTVSS	–
binds	2D3-9GS-2D3 (VHH, bivalent Nanobody, two VHH joined by a 9GS linker) EVQLVESGGSLVQPGGSLRLSCAASGFTFDDYAMSWVRQVPGKGLEWVSSINWSGTHTDYADSVKGRFTISRNNANNTLYLQMNSLKSEDTAVYYCAKNWRDAGTTWFEKSGSAGQGTQVTVSSGGGGSGGGSEVQLVESGGSLVQPGGSLRLSCAASGFTFDDYAMSWVRQVPGKGLEWVSSINWSGTHTDYADSVKGRFTISRNNANNTLYLQMNSLKSEDTAVYYCAKNWRDAGTTWFEKSGSAGQGTQVTVSS	–
binds	30D10-35GS-2D3 (bispecific antibody, biparatopic Nanobody, 35GS linker; c-myc, His6-tagged) EVQLVESGGGLVQAGGSLTLSCTASETTVRIRTMAWYRQPPGNQREWVATIGSNGFATYPDSVKGRFTISRDNAKNTVYLQMNSLKPEDTAVYYCRDINRDIWGQGSQVTVSSGGGGSGGGGSGGGGSGGGGSGGGGSGGGGSGGGGSEVQLVESGGSLVQPGGSLRLSCAASGFTFDDYAMSWVRQVPGKGLEWVSSINWSGTHTDYADSVKGRFTISRNNANNTLYLQMNSLKSEDTAVYYCAKNWRDAGTTWFEKSGSAGQGTQVTVSS	–
binds	2C3-9GS-2C3 (VHH, bivalent Nanobody, two VHH joined by a 9GS linker) EVQLVESGGGLVQPGGSLRLSCVASGFSLDDYGMTWVRQAPGKGLEWVSSINWSGTHTDYADSVKGRFTISRDNAKNTLFLQMNSLRSEDTAVYYCNQGWKIVPTDRTGHGTQVTVSSGGGGSGGGSEVQLVESGGGLVQPGGSLRLSCVASGFSLDDYGMTWVRQAPGKGLEWVSSINWSGTHTDYADSVKGRFTISRDNAKNTLFLQMNSLRSEDTAVYYCNQGWKIVPTDRTGHGTQVTVSS	–
binds	27A5-35GS-2D3 (bispecific antibody, biparatopic Nanobody, 35GS linker; c-myc, His6-tagged) EVQLVESGGGLVQAGGSLNLSCVASGIPFSTRTMAWYRQPPGNERDWVATIRSGAPVYADSVKGRFTVSRDNAKNTLYLQMNSLEPEDTATYYCWDVNGDIWGQGTPVTVSSGGGGSGGGGSGGGGSGGGGSGGGGSGGGGSGGGGSEVQLVESGGSLVQPGGSLRLSCAASGFTFDDYAMSWVRQVPGKGLEWVSSINWSGTHTDYADSVKGRFTISRNNANNTLYLQMNSLKSEDTAVYYCAKNWRDAGTTWFEKSGSAGQGTQVTVSS	–
binds	27H3-35GS-2D3 (other, biparatopic Nanobody, 35GS linker; c-myc, His6-tagged) EVQLVESGGSLVQPGGSLRLSCAASGFTFDDYAMTWVRQASGKGLEWVSSINWSGTHTDYTDSVKGRFTISRNNANNTLYLQMNSLKSEDTAVYYCAKNWGDAGTTWFEKSGSAGQGTQVTVSSGGGGSGGGGSGGGGSGGGGSGGGGSGGGGSGGGGSEVQLVESGGSLVQPGGSLRLSCAASGFTFDDYAMSWVRQVPGKGLEWVSSINWSGTHTDYADSVKGRFTISRNNANNTLYLQMNSLKSEDTAVYYCAKNWRDAGTTWFEKSGSAGQGTQVTVSS	–

The remaining lines, values behind:

Binder	binding result [1]	further results
2A5-9GS-2A5 (VHH, bivalent Nanobody, two VHH joined by a 9GS linker) EVQLVESGGGLVQPGGSLRLSCATSGFTFDDYAMTWVRQAPGKGLEWVSSINWSGTHTDYTDSVKGRFTISRNNANNTLYLQMNSLKSEDTAVYYCAKNWGDAGTTWFEKSGSAGQGTQVTVSSGGGGSGGGSEVQLVESGGGLVQPGGSLRLSCATSGFTFDDYAMTWVRQAPGKGLEWVSSINWSGTHTDYTDSVKGRFTISRNNANNTLYLQMNSLKSEDTAVYYCAKNWGDAGTTWFEKSGSAGQGTQVTVSS	binds	–
2D3 (VHH) VHH: EVQLVESGGSLVQPGGSLRLSCAASGFTFDDYAMSWVRQVPGKGLEWVSSINWSGTHTDYADSVKGRFTISRNNANNTLYLQMNSLKSEDTAVYYCAKNWRDAGTTWFEKSGSAGQGTQVTVSS	–	inhibition of SKBR3 proliferation ([3H]-thymidine), 50 nM Nanobody [2]: ~30%
13C12 (VHH, c-myc/His6-tagged) VHH: EVQLVESGGSLVQPGGSLRLSCATSGFTFDDYAMTWVRQAPGKGLEWVSSINWSGTHTDYTDSVKGRFTISRNNANNTLYLQMNSLKSEDTAVYYCAKNWGDAGTTWFEKSGSAGQGTQVTVSS	–	% blocking of Herceptin binding [3]: > 90%
2H3 (VHH, c-myc/His6-tagged) VHH: EVQLVESGGGLVQPGGSLRLSCVASGFSLDDYGMTWVRQAPGKGLEWVSSINWSGTHTDYADSVKGRFTISRDNAKNTLFLQMNSLTPEDTAVYYCNQGWKIIPTDRRGHGTQVTVSS	–	koff [4]: 0.00109 s⁻¹
47D5 (VHH, c-myc/His6-tagged; also called 47A8) VHH: KVQLVESGGGLVQPGGSLRLSCAASGSIFGFNDMAWYRQAPGKQRELVALISRVGVTSSADSVKGRFTISRVNAKDTVYLQMNSLKPEDTAVYYCYMDQRLDGSTLAYWGQGTQVTVSS	–	% blocking of OT-Fab binding [5]: > 85%
